According to patent US20010006793A1, “MODULATORS OF EUKARYOTIC CASPASES” (priority 1998, published 2001):

Molecular target: T1, human caspase-8β (Homo sapiens, UniProt Q14790)
T1 construct: expressed in transfected cells; host or cells: Saccharomyces cerevisiae FY250, single-copy ARS/CEN vector YCpGAL1-caspase-8β-L, GAL1 promoter
Experiment: Yeast screening method: suppression of caspase-8β-induced lethality in S. cerevisiae FY250 double transformants on galactose medium
Format: cell-based
Conditions: for identified as a caspase inhibitor (product of human brain cDNA suppressing caspase-8β-induced cell death): FY250 double transformants, GAL1-driven expression, galactose-containing medium; for Caspase Inhibitor: Table 1 Caspase Modulators, identified using the screening method of the invention
Text: The invention includes a screening method of determining whether a compound is a caspase modulator. […] A difference between the viability indicator of the first cell and the viability indicator of the second cell is an indication that the compound is a caspase modulator.
As described herein, the transformant expresses the caspase when an inducer of the inducible promoter of the caspase vector is provided to the caspase transformant. When the caspase transformant expresses the caspase, cytotoxicity ensues in the caspase transformant. If an inhibitor of the caspase is provided to the caspase transformant prior to the onset of cytotoxicity, the caspase transformant may be enabled to survive expression of the caspase or the onset of cytotoxicity may be delayed.
The gene encoding p35 was cloned into a yeast-based expression vector designated YCpGAL1-U (wherein U designates a URA3 selectable marker) to yield a YCpGAL1-p35-U inhibitor vector. Yeast cells were co-transformed with the inhibitor vector, YCpGAL1-p35-U, and with the caspase vector, YCpGAL1-caspase-8β-L, to yield a double transformant. Double transformants were plated on SC-leucine-uracil medium supplemented with dextrose to repress GAL1 promoter function. Serial ten-fold dilutions of individual double transformants grown in SC-leucine-uracil medium containing dextrose were prepared and spotted onto SC-leucine-uracil medium comprising dextrose or galactose.
Individual viable colonies of double transformant are isolated, and the test vector comprising the unknown cDNA is isolated.
The screening method used in this Example was performed as follows. A yeast double transformant was prepared by transforming S. cerevisiae strain FY250 with two yeast expression vectors. The first yeast expression vector comprised cDNA encoding a self-activating form of human caspase-8β operably linked to a GAL1 promoter and a LEU2 selectable marker. This first vector was a single copy vector and was designated YCpGAL1-caspase-8β-L. A plurality of second yeast expression vectors was used, each comprising a single random human cDNA sequence operably linked to a GAL1 promoter and a URA3 selectable marker. The cDNA sequences used to generate the plurality of second yeast expression vectors were obtained from a library of cDNAs prepared from human brain cells. The second vectors were multicopy vectors.
Double transformants were propagated on plates containing SC-leucine-uracil agar comprising dextrose. Colonies of double transformants were replica plated on plates containing medium comprising galactose, whereby expression of caspase-8β and of any product encoded by the cDNA of the second vector was induced. […] The second vector was recovered from individual colonies of double transformants which were able to survive on the galactose-containing medium and used, along with the first vector, to transform fresh FY250 cells. […] The identity of individual products encoded by the cDNA of individual second vectors was established by determining the nucleotide sequence of the cDNA and comparing the sequence with databases of known human gene sequences, including Genbank, the EST Database, and the Human Genome Database.

T1 sequence (Q14790 1-464 isoform Q14790-2): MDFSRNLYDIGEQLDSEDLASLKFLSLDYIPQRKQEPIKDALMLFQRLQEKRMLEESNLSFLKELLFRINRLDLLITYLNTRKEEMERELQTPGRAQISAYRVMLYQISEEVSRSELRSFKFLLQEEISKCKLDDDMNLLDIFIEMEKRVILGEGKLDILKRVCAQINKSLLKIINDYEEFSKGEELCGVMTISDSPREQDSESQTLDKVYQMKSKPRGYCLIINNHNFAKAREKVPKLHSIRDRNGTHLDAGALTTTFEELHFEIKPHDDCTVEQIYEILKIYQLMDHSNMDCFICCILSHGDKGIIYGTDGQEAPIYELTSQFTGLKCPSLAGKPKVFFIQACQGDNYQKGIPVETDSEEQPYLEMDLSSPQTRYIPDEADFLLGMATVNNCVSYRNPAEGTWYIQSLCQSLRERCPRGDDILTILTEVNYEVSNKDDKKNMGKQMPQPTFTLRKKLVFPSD

Row | Substance | identified as a caspase inhibitor (product of human brain cDNA suppressing caspase-8β-induced cell death) | Caspase Inhibitor
1 | Human Cytochrome b: product encoded by human brain cDNA, identified as caspase inhibitor | caspase inhibitor | ✓
2 | Human Synaptophysin p38: product encoded by human brain cDNA, identified as caspase inhibitor | caspase inhibitor | ✓
3 | Human Tat Binding Protein: product encoded by human brain cDNA; also known as TBP, SUG1, and 26S proteosomal p45 subunit ATPase | caspase inhibitor | ✓
4 | IETD/fmk [reference compound] |  | ✓
5 | z-VAD-fmk [reference compound] |  | ✓
